Source: patent US20240383984A1 (Genentech, published 2024)

Columns and labels:
[1] = target: T1, human FcRH5 (full-length, on cells) (human, UniProt Q96RD9 16-977); test: cell-based or functional assay
T1 sequence: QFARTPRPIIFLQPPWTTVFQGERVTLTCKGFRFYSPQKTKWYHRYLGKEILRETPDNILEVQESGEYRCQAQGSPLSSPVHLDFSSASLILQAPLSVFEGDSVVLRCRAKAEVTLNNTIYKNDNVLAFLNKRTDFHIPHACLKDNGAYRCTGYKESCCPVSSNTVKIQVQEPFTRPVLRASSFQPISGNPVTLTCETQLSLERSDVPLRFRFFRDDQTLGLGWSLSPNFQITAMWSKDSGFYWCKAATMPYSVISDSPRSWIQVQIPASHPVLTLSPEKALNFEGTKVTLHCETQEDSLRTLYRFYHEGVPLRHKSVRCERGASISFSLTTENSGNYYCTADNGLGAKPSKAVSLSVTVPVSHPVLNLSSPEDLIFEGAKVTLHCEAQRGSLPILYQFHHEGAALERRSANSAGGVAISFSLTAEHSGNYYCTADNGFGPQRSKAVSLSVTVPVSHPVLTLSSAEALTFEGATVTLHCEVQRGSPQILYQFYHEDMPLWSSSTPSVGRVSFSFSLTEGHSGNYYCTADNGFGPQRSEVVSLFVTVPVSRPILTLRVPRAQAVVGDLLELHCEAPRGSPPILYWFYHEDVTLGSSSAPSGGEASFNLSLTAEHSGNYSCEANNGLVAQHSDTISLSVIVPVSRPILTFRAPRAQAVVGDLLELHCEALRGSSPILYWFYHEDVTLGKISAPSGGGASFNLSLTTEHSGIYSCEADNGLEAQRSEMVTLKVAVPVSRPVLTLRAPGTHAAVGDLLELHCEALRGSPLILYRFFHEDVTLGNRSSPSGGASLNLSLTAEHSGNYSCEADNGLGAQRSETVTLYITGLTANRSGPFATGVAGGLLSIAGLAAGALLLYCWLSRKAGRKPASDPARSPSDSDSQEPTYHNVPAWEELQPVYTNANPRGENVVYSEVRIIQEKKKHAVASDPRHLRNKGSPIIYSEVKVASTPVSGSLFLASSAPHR

[2] = target: T2, human FcRH1 (full-length, on SVT2 cells) (human, UniProt Q96LA6 17-429); test: flow cytometry on SVT2-FcRH1 cells, PE-labelled secondary
T2 construct: whole, on cells; also called SVT2-FcRH1
T2 sequence (looked up): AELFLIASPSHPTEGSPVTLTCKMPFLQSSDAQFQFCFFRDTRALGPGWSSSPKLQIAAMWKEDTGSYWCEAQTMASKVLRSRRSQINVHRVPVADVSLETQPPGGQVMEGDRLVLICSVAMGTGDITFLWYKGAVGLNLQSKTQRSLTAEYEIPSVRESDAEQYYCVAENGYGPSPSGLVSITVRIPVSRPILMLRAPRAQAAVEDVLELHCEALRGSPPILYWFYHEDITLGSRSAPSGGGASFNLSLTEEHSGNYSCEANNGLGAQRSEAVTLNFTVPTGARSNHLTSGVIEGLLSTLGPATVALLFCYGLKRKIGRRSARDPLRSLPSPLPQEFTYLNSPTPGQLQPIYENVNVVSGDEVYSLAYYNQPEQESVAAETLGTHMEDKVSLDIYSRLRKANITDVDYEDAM
Procedure: Human FcRH5, cyno FcRH5, human FcRH1, FcRH2, FcRH3, and FcRH4 transfected mouse SVT2 cells were used to test binding and cross-reactivity of FcRH5 TDBs. The method was carried out as follows. Cultured SVT2 cells were lifted using non-enzyme cell dissociation buffer (Sigma, #C5914). 1×10⁵ cells were suspended in 100 μL and incubated with FcRH5 TDBs at 3 μg/ml. […] Cells were washed twice with FACS buffer before flow cytometry analysis was carried out on a FACSCalibur.

[3] = target: T3, cynomolgus FcRH5 protein fragment (soluble) (cynomolgus monkey); test: SPR (BIACORE), TDB captured as ligand, Cyno FcRH5 as analyte, 25 °C, 1:1 binding model
T3 construct: whole entry named; also called Cyno FcRH5 (BIACORE analyte)
T3 chain: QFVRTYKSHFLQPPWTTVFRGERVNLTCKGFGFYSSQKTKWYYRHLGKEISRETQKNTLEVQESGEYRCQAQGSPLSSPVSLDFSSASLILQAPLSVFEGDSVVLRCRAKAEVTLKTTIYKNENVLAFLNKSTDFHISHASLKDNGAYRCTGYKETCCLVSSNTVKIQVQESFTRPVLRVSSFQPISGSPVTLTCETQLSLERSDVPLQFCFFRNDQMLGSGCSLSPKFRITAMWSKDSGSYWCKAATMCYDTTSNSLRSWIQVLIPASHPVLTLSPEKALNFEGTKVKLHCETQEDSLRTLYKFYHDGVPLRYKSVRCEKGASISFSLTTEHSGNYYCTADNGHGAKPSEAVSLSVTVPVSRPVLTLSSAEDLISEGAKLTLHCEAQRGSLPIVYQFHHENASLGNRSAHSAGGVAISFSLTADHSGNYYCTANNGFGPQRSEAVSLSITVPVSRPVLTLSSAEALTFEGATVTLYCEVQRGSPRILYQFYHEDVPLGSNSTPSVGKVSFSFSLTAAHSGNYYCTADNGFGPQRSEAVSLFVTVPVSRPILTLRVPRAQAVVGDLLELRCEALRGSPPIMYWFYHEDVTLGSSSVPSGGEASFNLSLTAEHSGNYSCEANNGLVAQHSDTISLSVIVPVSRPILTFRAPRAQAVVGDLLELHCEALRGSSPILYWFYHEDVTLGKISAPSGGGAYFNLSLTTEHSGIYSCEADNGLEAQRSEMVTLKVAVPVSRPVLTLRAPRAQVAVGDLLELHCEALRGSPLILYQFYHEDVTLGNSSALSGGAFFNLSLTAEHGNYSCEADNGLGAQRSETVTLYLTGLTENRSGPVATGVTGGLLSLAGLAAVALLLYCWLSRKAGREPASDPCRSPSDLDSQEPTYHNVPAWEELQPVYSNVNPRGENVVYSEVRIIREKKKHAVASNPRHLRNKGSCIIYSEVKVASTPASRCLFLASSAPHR

B1: 1G7.v85/38E4.v1 TDB (bispecific antibody, V domains shown)
VH 1: EVQLVESGPGLVKPSETLSLTCTVSGFSLTRFGVHWVRQPPGKGLEWLGVIWRGGSTDYNAAFVSRLTISKDNSKNQVSLKLSSVTAADTAVYYCSNHYYGSSDYALDNWGQGTLVTVSS
VL 1: DIQMTQSPSSLSASVGDRVTITCKASQDVRNLVVWFQQKPGKAPKLLIYSGSYRYSGVPSRFSGSGSGTDFTLTISSLQPEDFATYYCQQHYSPPYTFGQGTKVEIK
VH 2: EVQLVQSGAEVKKPGASVKVSCKASGFTFTSYYIHWVRQAPGQGLEWIGWIYPENDNTKYNEKFKDRVTITADTSTSTAYLELSSLRSEDTAVYYCARDGYSRYYFDYWGQGTLVTVSS
VL 2: DIVMTQSPDSLAVSLGERATINCKSSQSLLNSRTRKNYLAWYQQKPGQSPKLLIYWTSTRKSGVPDRFSGSGSGTDFTLTISSLQAEDVAVYYCKQSFILRTFGQGTKVEIK
notes: knob-into-hole TDB; also called 1G7.v85 TDB; 1G7.v85 (TDB format)
- killing of 293-FcRH5-PD-L1 cells by primed CD8+ cells, TDB alone, EC50 [1]: 0.63 ng/mL
- killing of 293-FcRH5-PD-L1 cells, with anti-PD-1 antibody (pembrolizumab), EC50 [1]: 0.4 ng/mL
- killing of 293-FcRH5-PD-L1 cells, with anti-PD-L1 antibody, EC50 [1]: 0.4 ng/mL
- killing of MOLP-2 cells, EC50 [1]: 0.058 nM
- killing of SVT2-FcRH5 cells in DMSO, IC50 [1]: 0.006 nM
- killing of SVT2-FcRH5 cells in buffer, IC50 [1]: 0.007 nM
- killing of SVT2-FcRH5 cells with 0.1 µM Dex, IC50 [1]: 0.016 nM
- killing of plasma cells (PCs), median EC50 [1]: 25 ng/mL
- binding result [2]: no binding
- Kd [3]: 6.76 nM
- koff [3]: 0.000847 s⁻¹
- kon [3]: 125000 M⁻¹ s⁻¹
